Assay: yeast display, Sf9 membrane polyspecificity reagent, FACS + sequencing; frameworks hold sequencing errors
Summary of the method: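 Genes from sorted yeast were amplified by colony PCR, read by MiSeq 2 × 250 sequencing and filtered on CDR length. These cells carried a synthetic nanobody library in Saccharomyces cerevisiae BJ5465 and were sorted by FACS into low and high (top ~1%) gates on anti-HA and streptavidin fluorescence. Polyreactivity is labelled according to the gate of origin.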

Row | Sequence | polyreactivity (PSR sort gate)
1 | QVQIVESGGGLVQAGGSLRLSCAASGTFTYYAMGWYRQAPGKERELVAAITWRGGNTYYADSVKGRFTISRDNAKNTVYLQKNSLKPEDTEVYYCAASLWPDYEYDYWGQGTQVTVSS | low polyreactivity
2 | QVHLVESGGGLVQAGGSLRLSCAASGRTFVYNSMGWYRQAPGKERELVAAISSDGASTYYADSVKGRFTISRDNAKNTVYLQMNSLKPEDTAVYYCAADFSYYSYEHYYWGQGTQVTVSS | low polyreactivity
3 | QVQLVESGGGLVQAGGSLRLSCAASGSIIGRNAMGWYRQAPGKERELVAAISTRGGRTYYADSVKGRFTISRDNAKNTVYLQMNSLKPEDTAVYYCAATYQYLKSGYYWGQGTQVTVSS | high polyreactivity
4 | QVQLVESGGGLVQAGGSLRLSCAASGLTIKPNAMGWYRQAPGKERELVAAIDWSGGSTYCADSVKGRFTISRDNAKNTVDLQMNSLKPEDTAVYYCAADPPDRLFLYDYWGQGTQVTVSS | low polyreactivity
5 | QVQLVESGGGLVQAGGSLRLSCAASGSIFYNYAMGWYRQAPGKERELVAAISQSGGSTRYADSVKGRFTISRDNAKNTVYVQMNSLKPEDTAVYYCAASRRKGQGSAGFGYWGQGTQVTVSS | high polyreactivity
6 | QVQLVESGGGLVQAGGSLRLSCAASGSIFTKYAMGWYRQAPGKERELVAAITWSGGRTYYADSVKGRFTISRDNAKNTVYLQMNSLKPEDTAVYYCAADFFRQGYYYWGQGTQVTVSS | high polyreactivity
7 | KVQLVESGGGLVQAGGRLRLSCAASGFIFVPYPMGWYRQAPGKERELVATITGRGDSTYYADSVKGRFTISRDNAMNTVYLQMNSLKTDDTAVYYCAVDPIRLWAYDYWGQGTQVNVSS | low polyreactivity
8 | QVQLVESGGGLVQAGGSLRLSCAASGSTFNGYTMGWYRQAPGKERELVAAITWSGGRTYYADSVKGRFTISRDNAKNTVYLQMNSLKPEDTAVYYCAAKLRSRYDYWGQGTQVTVSS | high polyreactivity
9 | QVQLVESGGGLVQAGGSLRLSCAASGITFPDYAMGWYRQAPGKERELVATISSSGGNTYYADSVKGRFTISRDNAKNTVYLQMNSLKPEETAVYYCATVSYYCGYDYWGQGTQVTVSS | low polyreactivity
10 | QVQLVESGGGLVQAGGSLRLSCSASGRIFSLYAMGWYRQAPGKESELVAAITWSSGSTYYADSVKGRFTISRDNAKNTVYLQMNSLKPEDTAVYYCDARVFTLLGYSYEYWGEGTQVTVSS | low polyreactivity
11 | QVQLVESGGGLVQAGGSLRLSCAASGYTFQRYAMGRYRQAPGKERELVATISKRGGSTYYADSVKGRFTISRDNAKNTVYLQMNSLKPDDTAVYYCATATPEYRGYWPWQYAGGDYWGQGTQVTVSS | high polyreactivity
12 | QVQLVESGGGLVQAGGSLRLSCAASGFTFSYYAMGWYRQAPGKERELVAAISGSGGSTYYADSVKGRFTISRDNAKNTVYLQMNSLKPEDTAVYYCNARWRTRGHPEMYHWGQGTQVTVSS | high polyreactivity
13 | QVQLVESGGGLVQAGGSLRLSCAASGFIFYSYAMGWYRQAPGKERELVAAISRSGGITYYADSVKGRFTISRDNAKNTVYLQMNSLKPEDTAVYYCAKVGRGVSSIKDMDSWGQGTQVTVSS | high polyreactivity
14 | QVHLVESGGGLVQAGGSLRLICAASGSTFWSYAMGWYRQAPGKERELVAAITSGGRTYYADSVKGRFTISRDNAKNTVYLQMNRLKPEYTAVYNCNAVVRHTYRRFDYWGQGTQVTVSS | high polyreactivity
15 | QVQLVESGGGLVQAGGSLRFSCAASGSIIFDGNAMAWSRQAPGKEREMVADITTSDGRTYYADSVKGRFTISRDSAKNTVYFQMNSLKPEDTAVYDCAKPNGYHGGRYDYWGQGSQVTVSS | low polyreactivity
16 | QVQLVESGGGLVQAGGSLRLSCAASGGTFYGYAAMGWYRQAPGKERELVAAISRSGGRTYYADSVKGRFTISRDNAKNTVYLQMNSLKPEDTAVYYCNVGFYPYYFLTYQGGDYWGQGTQVTVSS | high polyreactivity

Row | Sequence | polyreactivity (PSR sort gate)
17 | QVQLVESGGGLVQAGGSLRLSCAASGFIIYRYAMGWYRQAPGKEWELVAAISKRGGSTYYADSVKGRFTISRDNAKNTVYLQMNSLKPEDTAVYYCAANRSYVDSTSFGKAYGYWGQGTQVTVSS | high polyreactivity
18 | QVQLVESGGGLVQAGGSLRLSCAASGSIFAYNAMGWYRQAPGKERELVAAISVSDGITYYADSVKGRFTISRDNAKNTVYLQMNSLKPEDTAVYYCAARTRGPYRAYDYWGQGTQVTVSS | low polyreactivity
19 | QVQLVDSGGGLVQAGGSLRLICAASGRTFGTNALGWYRQAPGKEREFVAAIRWSDGSTYYADSVKGRFTISRDNAKNTVYLQMNSLKPEDTAVYYCAKEYYIVDVIHDYALYLYDYWGQGTQVTVSS | low polyreactivity
20 | QVQLVESGGGLVQAGGSLRLSCAASGRIIPYYAMGWYRQAPGKERELVASTNYADSVKGRFTISRDNAKNTVYLQMNSLKPEDTAVYYCAADGYRYSVYLIRNPMDYWGQGTQVTVSS | low polyreactivity
21 | QVQLVESGGGLVQAGGSLRLSCAASGRTFVNNAMGRYREAPGKERELVAAITTSAGSTYYADSVKGRFTISRDNAKNTVYLQMNSLNPEDTAVYYCAAVVWKKRYFDLEYWGQGTQVTVSS | low polyreactivity
22 | QVQLVESGGGLVQAGGSLRLSCAASGRTFGKYAMGWYRQAPGKERELVAAITTRVVITYYADSVKGRFTISRDTAKNTVYLQMNSLKPEDTAVYYCAADPEKIYRPFNHYYYWGQGTQVTVSS | low polyreactivity
23 | QVQLVESGGGLVQAGGSLRLSCAAYGRIFDAYAMGWYRQAPGKERELVAAITQSGGSTFYADSVKGRFTNSRDNAKNTVYLQMNSLKPEDTAVYDSNTGLSGRRYGFGVSFGMDYWGQGTQVTVSS | low polyreactivity
24 | QVQLVESGGGLVQAGGSLRLSCAASGSIFVAYEMGWYRPAPGKERELVAAIDSVGRTNYADSVKGRFTISRDNAKNTDYLQMNSLKRVDTSVYSCNADQYYSFYDPDDYWGQGTQVTVSS | low polyreactivity
25 | QVQLVESGGGLVQAGGSLRLSCAASGRTFNEYAMGWYRQAPGKERELVAAISSSGDSTYYADSVKGRFTISRDNAKNTVYLQMNSLKPEDTAVYYCAAQVVVWYPYVYFPGYDYWGQGTQVTVSS | low polyreactivity
26 | QVQLVESGGGLVQAGGSLRLSCAASGIIFAYYAMGWYRQAPGKERELVATITSGSNTNYADSVKGRFTISRDNAQNTVYLQMNSLKPEDTAVYYWGQGTQVTVSS | low polyreactivity
27 | QVQLVESGGGLVQAGGSLRLSCAASGFIFPAYAMGWYRPAPGKERELVAAISKSGGRTYYADSVKGRFTISRDNAKNTVYIQMKSLKPEYTAVYYCDARMYNYDTSSSFDYWGQGTQVTVSS | high polyreactivity
28 | QVQLVESGGGLVQAGGSLRLSCAASGSNFSSYAMGWYREAPGKERELVAAIDGSGGSTYADSVKGRFTISRDNAKNTVYLQMNSLKPEDTAVYYCAVDSFLVYSAVRPYDYWGQGTQVTVSS | low polyreactivity
29 | QVQLVESGGGLVQAGGSLRLSCAASGSIFYYYAMGWYRQAPGKERELVAAISDDAITYYADSVKGRFTISRDNAKNTVYLQMNSLKPEDTAVYYCAAELYYPVGFDYWGQGTQVTVSS | high polyreactivity
30 | QVQLVESGGGLVQAGGSLRLSCAASGLIFYIYAMGWYRQAPGKERELVAAITTGGRTNYADSVKGRFTISRDNAKNTVELQMNSLKPEDTAVYYCAKDFPIWISHGPDTDNDYWGQGTQVTVSS | low polyreactivity
31 | QVQLVESGGGLVQAGGSLRLSCAASGRIFSTNAMGWYRQAPGKEWELVAAITRGVSTKYADSVKGRFTISRDNAKNTVYLQMNSLKPEDTAVYYCAARVVWGPESDYWGQGTQVTVSS | low polyreactivity
32 | QVQLVESGGGLVQAGGSLRLSCAASGSIFSFYAMGWYRQAPGKERELVADITWSGGRTYYADSVKGRFTISRDNAKNTVYLQMNSLKPEDTAVYYCNTELYLSRYKYVWSFDYWGQGTQVTVSS | low polyreactivity
